Experimental data: the RNAGym collection of RNA variant scans (doi:10.7554/elife.80360)

B1: Hairpin Ribozyme (parent)
chain: GUCCUCUUUCACGUGCGCGUGAAAGAGAGAAGUGAACCAGAGAAACACACGUUGUGGUAUAUUACCUGGUA

Variants of: B1
Assay: self-cleavage, relative activity (ratio to wild type); higher = more cleavage; co-transcriptional

Variant | self-cleavage
A24U A39U | 0.38
G25A A39U | 0.285
G25A A39G | 0.192
A26C A30C | 0.25
G25C G51U | 0.624
A26U A71U | 0.433
A26C G34A | 0.906
G25A G42C | 0.182
A24U A44G | 0.119
A24U A44C | 0.252
G25C A30G | 0.157
G25C A30U | 0.116
G25C A30C | 0.21
A24U A30C | 0.332
A24U A30U | 0.168
G25A A35U | 0.39
G25A A35G | 0.738
A24U G29C | 0.115
G25U G54A | 0.496
G25C G57U | 0.216
G25C G57C | 0.12
A24G U70G | 0.834
G25C U67C | 0.134
A26G U62C | 0.277

Variant | self-cleavage
A26G U62G | 0.0228
A26G U62A | 0.228
G25A A28G | 0.849
A26G C65U | 0.311
A26G C65G | 0.23
A24G U60G | 0.661
A24G U60A | 0.861
G25U G34A | 0.897
A24U C66U | 0.412
A24U C66A | 0.137
A24U C66G | 0.207
A26C G56A | 0.163
A26C G56C | 0.0943
G25A A47U | 0.108
G25A G56A | 0.105
G25A G56C | 0.117
A26C C48G | 0.138
G25C A41G | 0.298
G25C A41C | 0.622
A26G A43C | 0.11
A26G A43G | 0.114
G25C U33A | 0.0816
A26C A71U | 0.567
A26C G68A | 0.117

Variant | self-cleavage
G25A G29U | 0.164
G25A G29C | 0.118
A24U G25U | 0.682
G25A C38G | 0.252
G25A C38A | 0.173
A26C U62G | 0.0946
A26G U58C | 1.02
G25U C46G | 0.153
G25C A61G | 0.115
G25A C50U | 0.315
A24U G57A | 0.196
A24G G57U | 0.307
G25A A61G | 0.208
G25U G69A | 0.261
G25A A41C | 0.814
G25A A41U | 0.85
G25A A71G | 0.66
G25A A71U | 0.553
A24U A59C | 0.139
G25A A45G | 0.24
G25A G51U | 0.724
A26C U33C | 0.143
A26C U33A | 0.23
A26C G57C | 0.0672

Variant | self-cleavage
A24U A47U | 0.144
G25U A61G | 0.178
G25U A61C | 0.231
G25A G34C | 1.34
A26C A49C | 0.218
G25A G57U | 0.113
A26G A39G | 0.379
G25U A31C | 0.176
G25U A31U | 0.166
G25U A59G | 0.108
A24U G56A | 0.212
A24U C65G | 0.302
G25U U52A | 0.55
G25A U55A | 0.149
A26G A30G | 0.0496
A26G A30C | 0.0939
G25A U60A | 0.626
G25A U60C | 0.976
A24U G27U | 0.199
A26G G34A | 1.19
A26G G34U | 1.37
A26G G68U | 0.131
G25U G29C | 0.153
G25U G29A | 0.149

Variant | self-cleavage
G25C C46A | 0.129
A26C G51C | 0.714
A26C G51U | 0.919
A26C A28U | 0.291
A26C C38G | 0.182
A26C C38U | 0.416
A26C C38A | 0.163
G25C G42U | 0.182
G25C G42C | 0.236
A26U A61C | 0.226
A26U A61G | 0.187
G25U A41U | 1.08
A24G U53G | 0.591
G25C A31G | 0.153
G25C G27C | 0.171
G25C G29U | 0.188
G25C G29C | 0.166
A26U A30C | 0.205
A26G G40C | 0.167
A26G G40A | 0.302
A24U G69U | 0.192
A24U G34U | 1.22
A24U G34A | 1.02
A24U G34C | 1.18

Variant | self-cleavage
G25C A44C | 0.174
A24G U67C | 0.222
A24G U67G | 0.263
G25C C38A | 0.0929
A24G G54A | 0.387
A24G G54U | 0.607
G25C G56C | 0.148
G25C G56U | 0.153
G25U A28G | 0.971
G25U A28C | 0.233
G25C A47C | 0.217
A26U A47C | 0.151
A24U U62A | 0.2
A24U U62C | 0.293
G25A A31U | 0.0553
G25C A71C | 1.02
G25C A43G | 0.116
G25U C66A | 0.182
G25U C66G | 0.177
A24U A45C | 0.179
A24G G69C | 0.238
A26G C50U | 0.347
G25A A36C | 0.301
G25A A36G | 0.605

Variant | self-cleavage
A26U A43C | 0.098
G25A U52C | 0.7
A26U A28G | 1
A26G A31G | 0.884
A24U G54U | 0.476
G25A C46G | 0.135
G25U C38A | 0.216
G25U A26C | 0.21
G25U A26G | 0.421
A26G G54C | 0.457
A24U U60A | 0.57
A24U U60G | 0.531
A24G U62A | 0.316
A26G G42A | 0.245
A26G G42U | 0.371
A26G G42C | 0.357
A26G A35C | 0.799
A26G A35U | 0.523
A26G A35G | 0.763
A24G C46G | 0.105
A24G C46A | 0.107
A26G A45U | 0.148
G25U A36G | 0.639
A26G U53A | 0.814

Variant | self-cleavage
A26G U53C | 0.565
G25C U52G | 0.356
G25C U52A | 0.594
A24G G27U | 0.303
A26C G32C | 0.175
A26C G32A | 0.0538
G25C U60A | 0.392
G25C U60G | 0.297
G25U A64G | 0.428
G25U A64U | 0.142
G25C A35U | 0.228
A26G G32C | 0.144
A26G G32U | 0.121
G25U A35G | 0.656
G25U G57U | 0.179
A26C G69U | 0.108
A26C G69C | 0.212
A24G G56C | 0.14
A24G G56U | 0.122
G25U A49C | 0.179
G25U A49G | 0.217
A26U A45C | 0.223
G25C C48A | 0.129
G25C C48G | 0.127

Variant | self-cleavage
G25C C48U | 0.187
A26G A71G | 0.935
A26G A71U | 0.823
G25C A39G | 0.168
A24G U58A | 0.628
A24G U58G | 0.517
A24G U58C | 0.804
G25U G56C | 0.17
G25U G56U | 0.223
G25U G56A | 0.21
G25A U62G | 0.125
A26C C46A | 0.175
G25U U55C | 0.205
G25A A49C | 0.232
G25A A26C | 0.124
G25A A26G | 0.298
G25A A43U | 0.186
G25A A43C | 0.136
A26C G54C | 0.243
G25U G68A | 0.183
A26C A44C | 0.0715
A26C A44G | 0.124
G25C G54C | 0.139
A24U A61G | 0.231

Variant | self-cleavage
G25U A47U | 0.205
G25U U62G | 0.237
G25U U62A | 0.114
A24U G42A | 0.257
A26U A64U | 0.175
A26G G29U | 0.0885
A24G U52G | 0.687
A24G U52C | 0.762
A24U G68U | 0.22
A26G G69C | 0.403
A26G G69U | 0.204
A24G C48A | 0.191
G25A U67A | 0.118
A26C G27C | 0.197
A26C G27U | 0.0629
A24U C37U | 0.734
A24U C37G | 0.292
A26C U53G | 0.883
A24U A41C | 1.1
A24U A41U | 1.17
A26G A36G | 0.769
A26C A59C | 0.0674
A24U A36C | 0.517
A26C U55C | 0.211

Variant | self-cleavage
G25U C37U | 0.427
G25U C37G | 0.182
G25A G27C | 0.155
G25U A43C | 0.166
G25A G32A | 0.216
A26C A39U | 0.303
A26C A39C | 0.47
G25U G40U | 0.132
A26G U67G | 0.281
A24U C50U | 0.307
A24G G25C | 0.668
A24G G25A | 0.591
A26C G40C | 0.11
A26C G40U | 0.114
A24G C38U | 0.31
A24U U63G | 0.146
A24U U63A | 0.237
G25U A45C | 0.219
G25A U70A | 0.519
A26G A61U | 0.281
A24U A43G | 0.159
A26U A49C | 0.157
A26G U60C | 0.963
A26G U60A | 0.763

Variant | self-cleavage
A24U U33G | 0.135
A24U U33A | 0.11
A26C U67G | 0.196
G25U A39G | 0.191
A24G C65G | 0.296
A24G G34C | 1.34
A24G G34U | 0.956
A24G G34A | 0.862
A26C U52C | 0.811
A26G G56A | 0.271
G25C A28U | 0.327
A24U U67A | 0.0716
G25U U58C | 0.503
G25U U58A | 0.447
A26C U70A | 0.63
A24U C48G | 0.245
G25C A26U | 0.248
G25C A26C | 0.199
A26C G42C | 0.357
G25U A30C | 0.146
G25U G27A | 0.131
G25U G27U | 0.17
G25U G27C | 0.254
A26C A47U | 0.0646

Variant | self-cleavage
A26C A47G | 0.187
A24U U58C | 0.834
A24U U58A | 0.724
A24U U58G | 0.483
A26G C37G | 0.237
A26G C37U | 0.602
A26C C50G | 0.174
A26G G57A | 0.196
A26G G57C | 0.103
A26U A59U | 0.108
A26U A36G | 0.723
A24G G32U | 0.0918
A24G G32C | 0.242
A24G G32A | 0.14
A26G A47C | 0.251
A26G A47U | 0.152
A26U A31C | 0.171
G25C G32C | 0.116
G25C C50U | 0.192
A24U U70G | 0.533
A24U U70C | 0.743
A24U U70A | 0.877
A26G A44U | 0.103
A24U A35G | 0.751

Variant | self-cleavage
A26C A36C | 0.488
G25C C37U | 0.502
A24G U63G | 0.154
G25A C66G | 0.133
A24U C46U | 0.264
A24U C46G | 0.113
G25C A49C | 0.136
A26C A35U | 0.495
A26C A35G | 0.529
G25C U53A | 0.497
A26G C48G | 0.14
A26G C48U | 0.18
A24U A71C | 1.27
G25C U70C | 0.401
G25C U70A | 0.574
G25A G54A | 0.292
G25A G54U | 0.392
G25A G54C | 0.219
G25U G42A | 0.144
G25U U63A | 0.184
G25U G32A | 0.128
A26C U63A | 0.175
